Laboratory results published in patent publication US20260116991A1 (HAINAN SIMCERE ZAIMING PHARMACEUTICAL, published 2026).

Target: T1, murine GPC3-his protein (Sino Biological, Cat. No. 50989-M08B) (murine, UniProt Q8CFZ4 25-558)
T1 construct: Bought protein; also called murine GPC3 protein
Test: ELISA, coated murine GPC3-His;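 also: antigen coated on plates at 1 µg/mL, test antibody bound for 2 h at 37 °C, detected with HRP-conjugated secondary antibody and TMB substrate after acid stop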

T1 sequence (Q8CFZ4 25-558 limits assumed): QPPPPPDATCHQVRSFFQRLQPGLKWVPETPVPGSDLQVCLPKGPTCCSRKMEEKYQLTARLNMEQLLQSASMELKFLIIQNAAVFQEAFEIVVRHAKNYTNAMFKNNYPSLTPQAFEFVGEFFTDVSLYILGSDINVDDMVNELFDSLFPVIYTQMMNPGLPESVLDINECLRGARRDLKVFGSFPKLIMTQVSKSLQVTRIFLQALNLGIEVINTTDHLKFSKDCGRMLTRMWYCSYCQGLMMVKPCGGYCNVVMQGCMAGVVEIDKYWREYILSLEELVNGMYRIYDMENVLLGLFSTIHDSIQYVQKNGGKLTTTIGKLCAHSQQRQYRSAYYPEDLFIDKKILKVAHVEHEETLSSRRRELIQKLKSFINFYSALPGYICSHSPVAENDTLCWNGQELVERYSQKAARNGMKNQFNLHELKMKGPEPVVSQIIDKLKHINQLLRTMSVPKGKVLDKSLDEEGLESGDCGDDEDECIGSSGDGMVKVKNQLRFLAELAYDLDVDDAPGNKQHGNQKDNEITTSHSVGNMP

OD450 at 0.0001 nM antibody	OD450 at 0.001 nM antibody	OD450 at 0.01 nM antibody	OD450 at 0.1 nM antibody	OD450 at 1 nM antibody	OD450 at 10 nM antibody	OD450 at 100 nM antibody	Binder
0.05 OD450 nm	0.05 OD450 nm	0.06 OD450 nm	0.22 OD450 nm	0.17 OD450 nm	0.91 OD450 nm	0.17 OD450 nm	F1.136.7 human-murine chimeric antibody (antibody, human IgG1, kappa, V domains shown) VH: EVQLQQSGPVMVKPGPSVKISCQTSGFTFTDYYIHWVKQSHGKSLEWIGLVFPYDGGTNYNQKFKDKATLTLDTSSSTAYMELNSLTSEDSAVYYCARAGGFSYALNYWGQGTSVTVSS VL: DIQMTQSPSSLSASLGGKVTITCKASQDINNYIAWYQHKPGKGPRLLIHFTSTLQPGIPSRFSGSGSGRDYSFSISNLEPEDIATYYCLQYDNLLLTFGAGTKLELKR
0.04 OD450 nm	0.08 OD450 nm	0.04 OD450 nm	0.04 OD450 nm	0.05 OD450 nm	0.08 OD450 nm	0.09 OD450 nm	F1.153.1 human-murine chimeric antibody (antibody, human IgG1, kappa, V domains shown) VH: QIQLVQSGPELKKPGETVKISCKASGYTFTTAGMQWVQKMPGKGFKWIGWINTHSGEPQYAEDFKGRFAFSLETSASTAYLQISNLKNEDTATYFCARSFYYHGSSFFYFDYWGQGTTLTVSS VL: DIVMTQSQKFMSTTVGDRVSITCKASQNVGTAVAWYQQKPGQSPKLLIYSASNRYTGVPDRFTGSGSGADFTLTISNMQSEDLADYFCQQYSRYPLTFGAGTKLELKR
0.06 OD450 nm	0.13 OD450 nm	0.62 OD450 nm	2.04 OD450 nm	2.67 OD450 nm	2.6 OD450 nm	3.01 OD450 nm	F1.111.11 human-murine chimeric antibody (antibody, human IgG1, kappa, V domains shown) VH: EVQLQQSGPELVKPGASVKISCKASGYTFTDYYMNWVKQSHGKSLEWIGDIYPNNGDTTYNQRFKGKATLTVDKSSSTAYMELRSLASEDSAVYYCACPYNNPFGYWGQGTLVTVSA VL: DVVMTQTPLSLPVSLGDQASISCRSSQSLVHSNGNTYLHWYLQKPGQSPKLLIYKVSNRFSGVPDRFSGSGSGTDFTLKISRVEAEDLGVYFCSQSTHVPWTFGGGTKLEIKR
0.04 OD450 nm	0.04 OD450 nm	0.05 OD450 nm	0.04 OD450 nm	0.04 OD450 nm	0.06 OD450 nm	0.28 OD450 nm	F1.62.9 human-murine chimeric antibody (antibody, human IgG1, kappa, V domains shown) VH: QVQLQQSDAELVKPGASVKISCKVSGYIFTDHTIHWMKQRPEQGLEWIGYIYPRDGSIKYNENFKGKATLTADKSSSATYMQLNSLTSEDSAVYFCARPIYYDYAYYFDYWGQGTTLTVSS VL: DVVMTQSPLSLPVSLGDQASISCRSRQSLVHSNGNTYLHWYLQKPGQSPKVLIYKVSNRFSGVPDRFSGSGSGTDFTLKISRVEAEDLGVYFCSQSTHVPYTFGGGTKLEIKR
0.05 OD450 nm	0.04 OD450 nm	0.04 OD450 nm	0.05 OD450 nm	0.18 OD450 nm	0.18 OD450 nm	0.37 OD450 nm	F1.3.9 human-murine chimeric antibody (antibody, human IgG1, kappa, V domains shown) VH: QVQLQQPGTELVKPGASVKLSCKASGYTFTSYWIHWVKQRPGQGLEWIGNINPPNAGTNYNEKFKSKATLTVDKSSSTAYMQLSSLTSEDSAVYYCARGRWLLHDYWGQGTTLTVSS VL: DIQMTQSPASLSISVGETVTITCRASENIYSNLAWYQQKQGKSPQLLVYGTKNLAEGVPSRFSGSGSGTQYSLKINSLQSEDFGNYYCQHFWGTPYTFGGGTKLEILR
0.05 OD450 nm	0.04 OD450 nm	0.05 OD450 nm	0.05 OD450 nm	0.05 OD450 nm	0.05 OD450 nm	0.07 OD450 nm	F1.9.19 human-murine chimeric antibody (antibody, human IgG1, kappa, V domains shown) VH: DVQLQESGPGLVKPSQSLSLTCSVTGYSITSGYYWNWIRQFPGNRLEWMAYISYDGINNYNPSLKNRISIARDTSTNQFFLKLNSVTSEDTATYYCATTTEVALFDHWGQGTTLTVSS VL: DVLLTQTPLSLPVSLGDQASISCRSSQNIVHGNGNTYLEWFLQKPGQSPKLLIYKVSNRFSGVPDRFSGSGSGTDFTLKISRVEAEDLGLYYCFQASHVPWTFGGGTKLEIKR
0.05 OD450 nm	0.05 OD450 nm	0.05 OD450 nm	0.05 OD450 nm	0.05 OD450 nm	0.05 OD450 nm	0.06 OD450 nm	F2.154.1 human-murine chimeric antibody (antibody, human IgG1, kappa, V domains shown) VH: QVQLQQSGAELVRPGASVKLSCKASGYRFTDYEMHWVKQTPVHGLEWIGTIDPETGNTAYTQKFMDKATLTADKSSSTAYMELRSLTSEDSAVYYCTRGYSFTYWGQGTLATVSA VL: DVLMTQTPLSLPVSLGDQASISCRSSQNIVHSNGNTYLQWYLQKPGQSPKLLIFKVSNRFSGVPDRFSGSGSGTDFTLKISRVEAEDLGVYYCFQGSHVPFTFGTGTKLEIKR
0.05 OD450 nm	0.09 OD450 nm	0.38 OD450 nm	1.68 OD450 nm	2.49 OD450 nm	2.72 OD450 nm	2.63 OD450 nm	F2.169.2 human-murine chimeric antibody (antibody, human IgG1, kappa, V domains shown) VH: EVQLVETGGGLVQPKGSLKLSCAASGFSFNTNAMNWVRQAPGKGLEWVARIRSKSNNYATYYADSVKDRFTISRDDSQSMLYLQMNNLKTEDTAMYYCVRDGYYVLFAYWGQGTLVTVSA VL: DVLMTQTPLSLPVSLGDQASISCRFSQSIVNSNGNTYLEWFLQKPGQSPKLLIYKVSNRFSGVPDRFSGSGSGTDFTLKISRVEAEDLGVYYCFQGSHVPFTFGTGTKLEIKR
0.05 OD450 nm	0.05 OD450 nm	0.05 OD450 nm	0.05 OD450 nm	0.05 OD450 nm	0.07 OD450 nm	0.16 OD450 nm	F2.55.11 human-murine chimeric antibody (antibody, human IgG1, kappa, V domains shown) VH: EVKLVESGGGLVKPGGSLKLSCAASGLTFSTCTMSWVRQTPAKRLEWVATISSGGGNTYYPDSVKGRFTISRDNARNTLYLQMSSLRSEDTAMYYCVRLYYDGSPYAMDYWGQGTSVTVSS VL: DIQMTQTTSSLSASLGDRVTISCRASQDISNHLNWYQQKPDGTVKLLIYYTSRLHSGVPSRFSGSGSGTDYSLTISNLEQEDIATYFCQQDSKPPPTFGSGTKLEIKR
0.05 OD450 nm	0.05 OD450 nm	0.05 OD450 nm	0.05 OD450 nm	0.05 OD450 nm	0.06 OD450 nm	0.07 OD450 nm	F1.118.4 human-murine chimeric antibody (antibody, human IgG1, kappa, V domains shown) VH: QVQLQQSGAELAKPGASVKLSCKASGYSFTSYWIHWVKQRPGQGLEWIGYINPSSGYTKYNQKFKDKATLTADKSSSTAYMQLSSLTYEDSAVYYCARFGSSSFYFDYWGQGTTLTVSS VL: DIVLTQSPASLAVSLGQRATISCRASQSVSSSSYSYMHWYQQKPGQPPKLLIKYASNLDSGVPARFSGSGSGTDFTLNIHPVEEEDTATYYCQHSWEIPAFGGGTKLEIKR
0.05 OD450 nm	0.06 OD450 nm	0.08 OD450 nm	0.75 OD450 nm	0.77 OD450 nm	1.62 OD450 nm	1.32 OD450 nm	F1.145.22 human-murine chimeric antibody (antibody, human IgG1, kappa, V domains shown) VH: QVQLQQSGTDLARPGASVKLSCKASGYTFTSFGISWVKQRTGQGLEWIGEIYPRSGSPYYNEKFTGKATLTADKSSSTAYMELRSLTSEDSAVYFCAKDFGSSYVFDYWGQGTALTVSS VL: DIQMTQSPASLSASVGETVTITCRASENIYSYLTWYQQKQGKSPQLLVYNAKTLAEGVPSRFSGSGSGTQFSLKINSLQPEDFGTYYCQHHYGTPPTFGTGTKLDLKR
